# Results as given in US20250326823A1.
# Columns and labels:
# Experiment in all cases: cell-based or functional assay
# [1] = target: SARS-CoV-2 spike (S) protein, variant P.2 (SARS-CoV-2)
# [2] = target: SARS-CoV-2 spike (S) protein, variant JD.1.1 (SARS-CoV-2)
# [3] = target: SARS-CoV-2 spike (S) protein, variant B.1.427 (SARS-CoV-2)
# [4] = target: SARS-CoV-2 spike (S) protein, variant KP.2.3 (SARS-CoV-2) (UniProt P0DTC2)
# [5] = target: SARS-CoV-2 spike (S) protein, variant B.1.526 (SARS-CoV-2)
# [6] = target: SARS-CoV-2 spike (S) protein, variant XBB.1.16.6 (SARS-CoV-2)
# [7] = target: SARS-CoV-2 spike (S) protein, variant EG.5.1 (SARS-CoV-2)
# [8] = target: SARS-CoV-2 spike (S) protein, variant B.1.617.1 (SARS-CoV-2)
# [9] = target: SARS-CoV-2 spike (S) protein, variant B.1.621 (SARS-CoV-2)
# [10] = target: SARS-CoV-2 spike (S) protein, variant CH.1.1 (SARS-CoV-2) (UniProt P0DTC2)
# [11] = target: SARS-CoV-2 spike (S) protein, variant EG.5.1 (SARS-CoV-2) (UniProt P0DTC2)
# [12] = target: SARS-CoV-2 spike (S) protein, variant KP.2 (SARS-CoV-2) (UniProt P0DTC2)
# [13] = target: SARS-CoV-2 spike (S) protein, D614G (SARS-CoV-2) (UniProt P0DTC2)
# [14] = target: SARS-CoV-2 spike protein, variant KP.2 (SARS-CoV-2)
# [15] = target: SARS-CoV-2 spike (S) protein, variant B.1.1.7 (SARS-CoV-2)
# [16] = target: SARS-CoV-2 spike (S) protein, variant BA.4/5 (SARS-CoV-2)
# [17] = target: SARS-CoV-2 spike (S) protein, variant KP.3 (SARS-CoV-2) (UniProt P0DTC2)
# [18] = target: SARS-CoV-2 spike (S) protein, variant KP.3.1.1 (SARS-CoV-2) (UniProt P0DTC2)
# [19] = target: SARS-CoV-2 spike (S) protein, variant XBB.1.5 (SARS-CoV-2)
# [20] = target: SARS-CoV-2 spike (S) protein, variant XBB (SARS-CoV-2)
# [21] = target: SARS-CoV-2 spike (S) protein, variant LB.1 (SARS-CoV-2) (UniProt P0DTC2)
# [22] = target: SARS-CoV-2 spike (S) protein, variant BA.2.86 (SARS-CoV-2) (UniProt P0DTC2)
# [23] = target: SARS-CoV-2 spike (S) protein, variant JN.1 (SARS-CoV-2) (UniProt P0DTC2)
# [24] = target: SARS-CoV-2 spike (S) protein, variant B.1.429 (SARS-CoV-2)
# [25] = target: SARS-CoV-2 spike (S) protein, variant P.1 (SARS-CoV-2)
# [26] = target: SARS-CoV-2 spike (S) protein, variant XBB.2.3.2 (SARS-CoV-2)
# [27] = target: SARS-CoV-2 spike protein, variant KP.3 (SARS-CoV-2)
# [28] = target: SARS-CoV-2 spike (S) protein, variant JN.1 (SARS-CoV-2)
# [29] = target: SARS-CoV-2 spike (S) protein, variant B.1.351 (SARS-CoV-2)
# [30] = target: SARS-CoV-2 spike (S) protein, variant BA.1 (SARS-CoV-2)
# [31] = target: SARS-CoV-2 spike (S) protein, variant B.1.525 (SARS-CoV-2)
# [32] = target: SARS-CoV-2 spike (S) protein, variant BA.2.86 (SARS-CoV-2)
# [33] = target: SARS-CoV-2 spike (S) protein, variant CH.1.1 (SARS-CoV-2)
# [34] = target: SARS-CoV-2 spike (S) protein, variant B.1.617.2 (SARS-CoV-2)
# [35] = target: SARS-CoV-2 spike (S) protein, variant XEC (SARS-CoV-2) (UniProt P0DTC2)
substance,measurement,setting,value
AZD3152 (antibody),"IC50, pseudovirus neutralization",[1],0.135 nM
same,"IC80, pseudovirus neutralization",[1],0.359 nM
same,"IC50, pseudovirus neutralization",[2],> 67 nM
same,"IC80, pseudovirus neutralization",[2],> 67 nM
same,"IC50, pseudovirus neutralization",[3],0.598 nM
same,"IC80, pseudovirus neutralization",[3],2.03 nM
same,neutralizing activity IC50 (µg/ml (caption; values match nM)),[4],> 67
same,neutralizing activity IC80 (µg/ml (caption; values match nM)),[4],> 67
same,"IC50, pseudovirus neutralization",[5],0.329 nM
same,"IC80, pseudovirus neutralization",[5],1.04 nM
same,"IC50, pseudovirus neutralization",[6],> 67 nM
same,"IC80, pseudovirus neutralization",[6],> 67 nM
same,"IC50, pseudovirus neutralization",[7],> 67 nM
same,"IC80, pseudovirus neutralization",[7],> 67 nM
same,"IC50, pseudovirus neutralization",[8],0.271 nM
same,"IC80, pseudovirus neutralization",[8],0.687 nM
same,"IC50, pseudovirus neutralization",[9],0.265 nM
same,"IC80, pseudovirus neutralization",[9],0.625 nM
same,neutralizing activity IC80 (µg/ml (caption; values match nM)),[10],1.59
same,pseudotyped neutralization potency IC50,[10],0.501 nM
same,pseudotyped neutralization potency IC80,[10],1.47 nM
same,neutralizing activity IC50 (µg/ml (caption; values match nM)),[11],> 67
same,neutralizing activity IC80 (µg/ml (caption; values match nM)),[11],> 67
same,neutralizing activity IC50 (µg/ml (caption; values match nM)),[12],> 67
same,neutralizing activity IC80 (µg/ml (caption; values match nM)),[12],> 67
same,"IC50, pseudotyped neutralization potency",[13],0.016 nM
same,"IC50, pseudovirus neutralization",[13],0.102 nM
same,"IC80, pseudotyped neutralization potency",[13],0.032 nM
same,"IC80, pseudovirus neutralization",[13],0.623 nM
same,"IC50 (nM), pseudovirus neutralization",[14],> 67 nM
same,"IC50, pseudovirus neutralization",[15],0.622 nM
same,"IC80, pseudovirus neutralization",[15],1.54 nM
same,"IC50, pseudovirus neutralization",[16],0.198 nM
same,"IC80, pseudovirus neutralization",[16],0.656 nM
same,neutralizing activity IC50 (µg/ml (caption; values match nM)),[17],> 67
same,neutralizing activity IC80 (µg/ml (caption; values match nM)),[17],> 67
same,neutralizing activity IC50 (µg/ml (caption; values match nM)),[18],> 67
same,neutralizing activity IC80 (µg/ml (caption; values match nM)),[18],> 67
same,"IC50, pseudovirus neutralization",[19],0.109 nM
same,"IC80, pseudovirus neutralization",[19],0.355 nM
same,"IC50, pseudovirus neutralization",[20],0.0748 nM
same,"IC80, pseudovirus neutralization",[20],0.349 nM
same,neutralizing activity IC50 (µg/ml (caption; values match nM)),[21],> 67
same,neutralizing activity IC80 (µg/ml (caption; values match nM)),[21],> 67
same,neutralizing activity IC80 (µg/ml (caption; values match nM)),[22],2.23
same,neutralizing activity IC50 (µg/ml (caption; values match nM)),[23],5.11
same,neutralizing activity IC80 (µg/ml (caption; values match nM)),[23],28
same,"IC50, pseudovirus neutralization",[24],0.549 nM
same,"IC80, pseudovirus neutralization",[24],1.39 nM
same,"IC50, pseudovirus neutralization",[25],0.315 nM
same,"IC80, pseudovirus neutralization",[25],0.548 nM
same,"IC50, pseudovirus neutralization",[26],0.168 nM
same,"IC80, pseudovirus neutralization",[26],0.513 nM
same,"IC50 (nM), pseudovirus neutralization",[27],> 67 nM
same,"IC50, pseudovirus neutralization",[28],5.11 nM
same,"IC80, pseudovirus neutralization",[28],28 nM
same,"IC50, pseudovirus neutralization",[29],0.163 nM
same,"IC80, pseudovirus neutralization",[29],0.459 nM
same,"IC50, pseudovirus neutralization",[30],0.0779 nM
same,"IC80, pseudovirus neutralization",[30],0.446 nM
same,"IC50, pseudovirus neutralization",[31],0.668 nM
same,"IC80, pseudovirus neutralization",[31],1.53 nM
same,"IC50, pseudovirus neutralization",[32],0.351 nM
same,"IC80, pseudovirus neutralization",[32],2.23 nM
same,"IC50, pseudovirus neutralization",[33],0.301 nM
same,"IC80, pseudovirus neutralization",[33],1.59 nM
same,"IC50, pseudovirus neutralization",[34],0.602 nM
same,"IC80, pseudovirus neutralization",[34],2.2 nM
same,neutralizing activity IC50 (µg/ml (caption; values match nM)),[35],> 67
same,neutralizing activity IC80 (µg/ml (caption; values match nM)),[35],> 67
ADG20 (antibody),neutralization IC50,[1],0.034 nM
same,neutralization IC80,[1],0.121 nM
same,pseudovirus neutralization IC50,[2],> 67 nM
same,pseudovirus neutralization IC80,[2],> 67 nM
same,neutralization IC50,[3],0.072 nM
same,neutralization IC80,[3],0.162 nM
same,neutralizing activity IC50 (µg/ml (caption; values match nM)),[4],> 67
same,neutralizing activity IC80 (µg/ml (caption; values match nM)),[4],> 67
same,neutralizing activity IC50,[5],0.019 nM
same,neutralizing activity IC80,[5],0.081 nM
same,neutralizing activity IC50,[6],> 67 nM
same,neutralizing activity IC80,[6],> 67 nM
same,pseudovirus neutralization IC50,[7],> 67 nM
same,pseudovirus neutralization IC80,[7],> 67 nM
same,neutralization IC50,[8],0.015 nM
same,neutralization IC80,[8],0.071 nM
same,neutralizing activity IC50,[9],0.026 nM
same,neutralizing activity IC80,[9],0.131 nM
same,neutralizing activity IC50 (µg/ml (caption; values match nM)),[10],13.7
same,neutralizing activity IC80 (µg/ml (caption; values match nM)),[10],> 67
same,neutralizing activity IC50 (µg/ml (caption; values match nM)),[11],> 67
same,neutralizing activity IC80 (µg/ml (caption; values match nM)),[11],> 67
same,neutralizing activity IC50 (µg/ml (caption; values match nM)),[12],> 67
same,neutralizing activity IC80 (µg/ml (caption; values match nM)),[12],> 67
same,neutralization IC50,[13],0.019 nM
same,neutralization IC80,[13],0.065 nM
same,"IC50 (nM), pseudovirus neutralization",[14],> 67 nM
same,neutralization IC50,[15],0.106 nM
same,neutralization IC80,[15],0.424 nM
same,neutralizing activity IC50,[16],> 67 nM
same,neutralizing activity IC80,[16],> 67 nM
same,neutralizing activity IC50 (µg/ml (caption; values match nM)),[17],> 67
same,neutralizing activity IC80 (µg/ml (caption; values match nM)),[17],> 67
same,neutralizing activity IC50 (µg/ml (caption; values match nM)),[18],> 67
same,neutralizing activity IC80 (µg/ml (caption; values match nM)),[18],> 67
same,neutralizing activity IC50,[19],> 67 nM
same,neutralizing activity IC80,[19],> 67 nM
same,neutralizing activity IC50,[20],10.6 nM
same,neutralizing activity IC80,[20],> 67 nM
same,neutralizing activity IC50 (µg/ml (caption; values match nM)),[21],> 67
same,neutralizing activity IC80 (µg/ml (caption; values match nM)),[21],> 67
same,neutralizing activity IC50 (µg/ml (caption; values match nM)),[22],> 67
same,neutralizing activity IC80 (µg/ml (caption; values match nM)),[22],> 67
same,neutralizing activity IC50 (µg/ml (caption; values match nM)),[23],> 67
same,neutralizing activity IC80 (µg/ml (caption; values match nM)),[23],> 67
same,neutralization IC50,[24],0.014 nM
same,neutralization IC80,[24],0.061 nM
same,neutralizing activity IC50,[25],0.021 nM
same,neutralizing activity IC80,[25],0.117 nM
same,neutralizing activity IC50,[26],> 67 nM
same,neutralizing activity IC80,[26],> 67 nM
same,"IC50 (nM), pseudovirus neutralization",[27],> 67 nM
same,pseudovirus neutralization IC50,[28],> 67 nM
same,pseudovirus neutralization IC80,[28],> 67 nM
same,neutralization IC50,[29],0.011 nM
same,neutralization IC80,[29],0.05 nM
same,neutralizing activity IC50,[30],13.9 nM
same,neutralizing activity IC80,[30],> 67 nM
same,neutralizing activity IC50,[31],0.019 nM
same,neutralizing activity IC80,[31],0.101 nM
same,pseudovirus neutralization IC50,[32],> 67 nM
same,pseudovirus neutralization IC80,[32],> 67 nM
same,neutralizing activity IC50,[33],13.7 nM
same,neutralizing activity IC80,[33],> 67 nM
same,neutralizing activity IC50,[34],0.11 nM
same,neutralizing activity IC80,[34],0.118 nM
same,neutralizing activity IC50 (µg/ml (caption; values match nM)),[35],> 67
same,neutralizing activity IC80 (µg/ml (caption; values match nM)),[35],> 67
